Earlier results on 1 substance are cited in paper PMC6969543.

The target in the data set is Glu325 (UniProt position 325, TLHMFEVPFLL). As to the kind of experiment: IR.

“Lactose permease (LacY), form used in earlier work (quoted values) (Escherichia coli)”: the pKa was 10.5 ± 0.1.

The term pKa denotes the pH at which an ionisable group is half protonated.
